# Read-outs that look alike come from different tables or passages of the source. Where no end group is shown, it is not given here.
# Legend:
# [1] = set-up: species or system BALB/c mice; settings: mouse, in vivo
# Description: FIGS. 8A-8E. Biodistribution and LN retention of CpG on day3 and day5, as determined by ROI signal quantification of PET images and γ-counting of isolated organs. (A) PET quantification of the % ID of different forms of CpG in major organs on Day3. (B) Detailed PET quantification of the % ID of different forms of CpG in IN and AX LNs on Day3. (C) γ-counting quantification of the % ID/g of different forms of CpG in LNs on Day3. (D) γ-counting quantification of the % ID/g of different forms of CpG in major organs on Day5. (E) γ-counting quantification of the % ID/g of different forms of CpG in LNs on Day5. Due to signal decay over 5 days, the radioactivity was too low to be detected by PET on day5, so the % injection dose on Day5 was not determined by PET. ID: injection dose; ID/g: injection dose/gram of tissue.
# The blood had less than 4% ID/g for all tested formulations. On day 5 post injection, even though the radioactivity of ^64Cu-labeled vaccines was too low to be sensitively detected by PET, the radioactivity of ex vivo organs were sensitively measured to determine the biodistribution profile (FIGS. 8D-8E).
# [2] = mouse, in vivo, sc
# Protocol: (A) Structures, formulations, and radiolabeling strategies of CpG derivatives for PET-based screening. (B) Representative coronal PET images showing FVB mice at 6 h post s.c. injection of CpG derivatives at tail base. […] White arrow heads mark IN and AX LNs. (C) Amounts of CpG derivatives in IN and AX LNs quantified from 3D-reconstructed, decay-corrected PET images (n=4-8).
# Coronal (coro), transverse (trans), and 3D projection (proj) of PET images showing efficient LN-targeted delivery and whole-body distribution of MH2C over 3 days post injection. White arrow heads mark IN and AX LNs. The scale bar for 3D proj was based on the maximal signal intensity in each image. (Injection dose: 120 μCi; ID: injection dose).
# Mice were s.c. injected with ^64Cu-radiolabeled AlbiCpG, followed by PET imaging to reveal its 3D biodistribution in mice over 3 days (FIG. 5B). […] Based on PET, decay-corrected radioactivity in draining inguinal (IN) LNs, and axillary (AX) LNs. LNs were quantified as the percentage of injection dose (% ID) (FIG. 5C).
# albumin [3] = experiment: method not named; recovery of MEB fluorescence on albumin binding (FIG. 21C)
# Target sequence in this assay (P02768 25-609): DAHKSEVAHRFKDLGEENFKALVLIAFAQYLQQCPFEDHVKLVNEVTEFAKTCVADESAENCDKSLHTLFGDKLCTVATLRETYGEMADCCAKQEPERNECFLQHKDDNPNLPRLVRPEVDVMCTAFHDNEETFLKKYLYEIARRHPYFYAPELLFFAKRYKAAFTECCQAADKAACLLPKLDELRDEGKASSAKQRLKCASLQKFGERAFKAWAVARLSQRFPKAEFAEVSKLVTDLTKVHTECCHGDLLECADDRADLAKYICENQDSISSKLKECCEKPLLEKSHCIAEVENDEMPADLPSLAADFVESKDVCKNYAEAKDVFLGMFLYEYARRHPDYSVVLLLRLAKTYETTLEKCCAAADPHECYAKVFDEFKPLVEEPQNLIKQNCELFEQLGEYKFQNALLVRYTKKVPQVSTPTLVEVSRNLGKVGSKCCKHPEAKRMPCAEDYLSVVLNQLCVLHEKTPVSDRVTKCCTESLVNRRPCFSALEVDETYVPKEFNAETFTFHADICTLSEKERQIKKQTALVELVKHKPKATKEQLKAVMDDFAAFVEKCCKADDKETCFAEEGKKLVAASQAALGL
# [4] = PET imaging of vaccine uptake in LNs of B16F10 tumor-bearing mice; assay type: in vivo, C57BL/6 mice
# Description: FIG. 23A-23D. Representative PET images (A) and the corresponding quantification (B) showing the uptake of AlbiCpG (MEB-(HEG)2-CpG) in draining IN LNs and AX LNs of B16F10 tumor-bearing C57BL/6 mice. […] (C-D) Representative PET images (c) and the corresponding quantification (D) showing the uptake of AlbiTrp2 in LNs (IN and AX) of B16F10 tumor-bearing C57BL/6 mice. (Coro: coronal; trans: transverse; proj: projection; ID: injection dose; ID/g: ID/gram of organ weight)
# For immunotherapy, C57BL/6 mice s.c. inoculated with 3×10^5 B16F10 cells were treated with AlbiCpG (2 nmole CpG equivalents)+AlbiTrp2 (20 μg) on days 6, 12, and 18 post inoculation. […] Furthermore, using a combination of multiple synergistic therapeutics can be used.
# [5] = water solubility of MEB-peptide conjugates; assay type: physicochemical
# Description: (§1) Tyrosinase-related protein 2 (Trp2), a melanoma-associated subunit Ag, was used in this study. Trp2 with an N-terminal cysteine was conjugated with MEB to prepare albumin-binding MEB-Trp2 (denoted as AlbiTrp2). Hydrophilic MEB increased the water solubility of AlbiTrp2 relative to Trp2, and the resulting amphiphilic AlbiTrp2 self-assembled into nanoparticles in aqueous solution (FIG. 21A, 21B). […] To study LN-targeted Trp2 delivery, ^64Cu-labeled AlbiTrp2 was s.c. injected at the tail base of FVB mice for PET imaging (FIG. 22A).
# (§2) Encouraged by the efficient delivery of peptide antigen, AlbiVax-based neoantigen delivery was exploited for personalized tumor immunotherapy. Adpgk, a neoantigen [ASMTN(R→M)ELM] (SEQ ID NO: 86) in MC38 (colon cancer) tumor cells^7 was used. The conjugation of hydrophilic MEB improved the water solubility of MEB-Adpgk (denoted as AlbiAdpgk).
# albumin [6] = experiment: albumin binding of AlbiTrp2; settings: R^2=0.88
# Description: FIG. 21A-21C. TEM (A) and AFM (B) images of albumin/AlbiTrp2 nanocomplexes. The length-height graph in (B) was shown for the marked crossline in AFM image. (C) Albumin binding of AlbiTrp2 recovered the MEB fluorescence.
# as §1
# [7] = PET imaging of 64Cu-labeled AlbiTrp2 LN delivery; assay type: in vivo, FVB mice; settings: within 3 days
# Description: FIG. 22A-22B. […] White arrows mark LNs.
# as §1
# [8] = tested on: BMDCs and RAW264.7 macrophages; experiment: ELISA of proinflammatory factors in culture medium (in vitro immunostimulation); assay type: cell-based
# [9] = PET imaging of 64Cu-labeled AlbiAdpgk LN delivery; assay type: in vivo, FVB mice
# Protocol: FIG. 25A-25D. Representative coronal and transverse of PET images (A) at 6 h post injection and quantification (B) of AlbiAdpgk, free Adpgk, and IFA(Adpgk) in IN and AX LNs of FVB mice (n=4/group). White arrows mark the LNs. (C) Quantified biodistribution of ^64Cu-labeled AlbiAdpgk in organs by γ-counting of excised organs at 48 h post injection. (D) % ID at injection sites quantified from decay-corrected PET scans.
# as §2
substance,measurement,setting,value
CpG 1826,% ID/g in inguinal LNs,[1],8.3±4.7 % ID/g
same,radioactivity density in axillary LNs,[1],3.2±1.2 %/g
same,accumulation / retention in LNs,[2],no apparent accumulation in any of the LNs
MEB-Trp2 (albumin-binding conjugate of maleimide-functionalized truncated Evans Blue with Trp2 peptide bearing an N-terminal cysteine) (from UniProt P29812 180-188),Kd,albumin [3],790 nM
AlbiTrp2: Trp2 peptide with N-terminal cysteine conjugated with MEB (CSVYDFFVWL),delivery to LNs in tumor-bearing mice,[4],efficiently delivered to LNs except tumor draining axillary LNs
same,water solubility,[5],increased
same,Kd,albumin [6],790 nM
same,AUC in LNs relative to free Trp2,[7],91 fold
"MEB-GpC: MEB conjugate of control GpC ODN (TCCATGAGCTTCCTGAGCTT, SEQ ID NO: 34) (DNA, backbone and methylation of C not given here; further chemistry not fully specified)",secretion of proinflammatory factors (ELISA),[8]; BMDCs and RAW264.7 macrophages,did not stimulate these cells significantly more potently than the background
same,immunostimulatory activity (ELISA of culture medium),"[8]; RAW264.7 macrophages, alone or premixed with HSA",inactive for immunostimulation
"AlbiAdpgk: MEB conjugate of Adpgk neoantigen ASMTNMELM (SEQ ID NO: 86) of MC38 (also: MEB (albumin-binding) conjugate, site not given here)",amount trapped at the injection sites relative to IFA(Adpgk),[9]; PET,Significantly less
same,AUC in IN and AX LNs relative to Adpgk or IFA(Adpgk),[9]; within 2 days,43 fold
same,water solubility,[5]; relative to unconjugated peptide,improved

# Reference: US20190298824A1, “ALBUMIN-BINDING IMMUNOMODULATORY COMPOSITIONS AND METHODS OF USE THEREOF” (THE UNITED STATES OF AMERICA, as represented by the …, priority 2016, published 2019)
